According to patent US20040116336A1, “Peptide derivatives” (priority 2002, published 2004):
Starred links: 1 amine or outer side, 2 acyl side, 3 side chain; linkers in the order of their positions; H or OH if unused. Non-standard residues stand in square brackets, D forms with d. No end group written: not given here. *: point of attachment. Phe(4-Cl) = N[C@@H](Cc1ccc(Cl)cc1)C(=O)O; Adipoyl = O=C(CCCCC(=O)[*:2])[*:1]; Cha = N[C@@H](CC1CCCCC1)C(=O)O; pGlu = O=C1CC[C@@H](C(=O)O)N1; Morpholide = C1CN(*)CCO1; Nle = CCCC[C@H](N)C(=O)O; Dap = NC[C@H](N)C(=O)O; Hexanoyl = CCCCCC(=O)*

What was measured:
[1] = target: APJ (orphan G protein-coupled receptor protein); assay: cell-based or functional assay
[2] = target: APJ (orphan G protein-coupled receptor protein); assay: radioligand competition, compound of Ref. Ex. 2 as labelled ligand, CHO-A10 membrane fraction
[3] = target: APJ (orphan G protein-coupled receptor protein); assay: radioligand competition, 125I-labelled compound of Ref. Ex. 1 (100 pM), CHO-A10 membrane fraction

Chain of APJ (orphan G protein-coupled receptor protein) (P35414 whole entry): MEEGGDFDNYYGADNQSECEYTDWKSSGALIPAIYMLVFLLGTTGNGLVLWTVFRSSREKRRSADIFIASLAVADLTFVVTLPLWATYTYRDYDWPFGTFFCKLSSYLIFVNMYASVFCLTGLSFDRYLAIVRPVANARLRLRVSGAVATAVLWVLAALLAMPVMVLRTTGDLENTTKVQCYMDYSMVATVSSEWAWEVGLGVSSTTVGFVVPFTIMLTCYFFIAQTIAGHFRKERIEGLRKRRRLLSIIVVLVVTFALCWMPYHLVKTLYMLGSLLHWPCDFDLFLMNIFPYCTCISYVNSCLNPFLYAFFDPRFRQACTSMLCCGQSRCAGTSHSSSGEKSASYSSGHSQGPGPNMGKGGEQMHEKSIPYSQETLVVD

Row | EC50, inhibition of forskolin-stimulated cAMP production (CHO-A10 clone 6 cells) [1] | IC50 [2] | IC50 [3] | Binder
1 | 0.2 nM | 0.4 nM |  | XRPRLSHRGPMPF (N-terminal pGlu; peptide derivative; Xaa means pGlu) [pGlu-Arg-Pro-Arg-Leu-Ser-His-Arg-Gly-Pro-Met-Pro-Phe]
2 | 0.48 nM | 0.62 nM |  | RRQRPRLSHKGPX (oxidized C-terminal residue; peptide; Xaa means Met(O)) [Arg-Arg-Gln-Arg-Pro-Arg-Leu-Ser-His-Lys-Gly-Pro-Met(O)]
3 | 1.1 nM | 0.45 nM | 1.1 nM | RPRLS[Dap](Hexanoyl)RGP[Cha]P[Phe(4-Cl)] [Arg-Pro-Arg-Leu-Ser-Dap(C6)-Arg-Gly-Pro-Cha-Pro-Phe(Cl)]
4 | 0.52 nM | 0.17 nM | 0.52 nM | RPRASHKGP[Cha]PX (not fully specified (residue 12); printed as Arg-Pro-Arg-Ala-Ser-His-Lys-Gly-Pro-Cha-Pro-Phe(Cl)) [Arg-Pro-Arg-Ala-Ser-His-Lys-Gly-Pro-Cha-Pro-Phe(Cl)]
5 | 0.51 nM | 0.13 nM | 1.2 nM | RPRLSARGP[Cha]PX (not fully specified (residue 12); printed as Arg-Pro-Arg-Leu-Ser-Ala-Arg-Gly-Pro-Cha-Pro-Phe(Cl)) [Arg-Pro-Arg-Leu-Ser-Ala-Arg-Gly-Pro-Cha-Pro-Phe(Cl)]
6 | 1.2 nM | 0.26 nM |  | RRQRPRLSARG-Morpholide [Arg-Arg-Gln-Arg-Pro-Arg-Leu-Ser-Ala-Arg-Gly-Mor]
7 | 0.22 nM | 0.21 nM |  | XRPRLSAKGPMPF (N-terminal pGlu; peptide derivative; Xaa means pGlu) [pGlu-Arg-Pro-Arg-Leu-Ser-Ala-Lys-Gly-Pro-Met-Pro-Phe]
8 | 0.71 nM | 3.5 nM |  | RPRLSHKGPMPX (C-terminal Cha; peptide derivative; Xaa means Cha) [Arg-Pro-Arg-Leu-Ser-His-Lys-Gly-Pro-Met-Pro-Cha]
9 | 0.3 nM | 1.3 nM |  | XRPRLSHKGPMX (N-terminal pGlu; C-terminal Cha; peptide derivative; Xaa on the 1st position means pGlu; Xaa on the 12th position means Cha) [pGlu-Arg-Pro-Arg-Leu-Ser-His-Lys-Gly-Pro-Met-Cha]
10 | 0.069 nM | 0.73 nM |  | [pGlu]RPRLSRRGPMPF [pGlu-Arg-Pro-Arg-Leu-Ser-Arg-Arg-Gly-Pro-Met-Pro-Phe]
11 | 0.37 nM | 0.61 nM |  | RPRLSHKGPMX (Nal(2) non-natural residue; peptide derivative; Xaa means Nal(2)) [Arg-Pro-Arg-Leu-Ser-His-Lys-Gly-Pro-Met-Nal(2)]
12 | 0.55 nM | 0.046 nM | 1.4 nM | RRQRPRLSARGPX (C-terminal Cha; peptide derivative; Xaa means Cha.) [Arg-Arg-Gln-Arg-Pro-Arg-Leu-Ser-Ala-Arg-Gly-Pro-Cha]
13 | 0.35 nM | 0.16 nM | 13 nM | XRPRLSHKGPXPF (N-terminal pGlu; Cha non-natural residue; peptide derivative; Xaa on the 1st position means pGlu.; Xaa on the 11th position means Cha.) [pGlu-Arg-Pro-Arg-Leu-Ser-His-Lys-Gly-Pro-Cha-Pro-Phe]
14 | 0.43 nM | 0.54 nM |  | RPRLFHKGP[Cha]X (not fully specified (residue 11); printed as Arg-Pro-Arg-Leu-Phe-His-Lys-Gly-Pro-Cha-Phe(Cl)) [Arg-Pro-Arg-Leu-Phe-His-Lys-Gly-Pro-Cha-Phe(Cl)]
15 | 0.24 nM | 0.95 nM |  | XRPRLSFKGPMPF (N-terminal pGlu; peptide derivative; Xaa means pGlu) [pGlu-Arg-Pro-Arg-Leu-Ser-Phe-Lys-Gly-Pro-Met-Pro-Phe]
16 | 0.42 nM | 0.13 nM | 0.42 nM | RPRLS[Dap](Adipoyl)RGP[Cha]P[Phe(4-Cl)] [Arg-Pro-Arg-Leu-Ser-Dap(Adi)-Arg-Gly-Pro-Cha-Pro-Phe(Cl)]
17 | 0.57 nM | 0.84 nM | 2.9 nM | RRXRPRLSHKGPMPF (N-terminal branched Arg-Arg-Lys(Arg-Arg); peptide derivative; Xaa means Lys(Arg-Arg)) [Arg-Arg-Lys(Arg-Arg)-Arg-Pro-Arg-Leu-Ser-His-Lys-Gly-Pro-Met-Pro-Phe]
18 | 0.58 nM | 0.22 nM | 0.58 nM | RPRLSHAGP[Cha]PX (not fully specified (residue 12); printed as Arg-Pro-Arg-Leu-Ser-His-Ala-Gly-Pro-Cha-Pro-Phe(Cl)) [Arg-Pro-Arg-Leu-Ser-His-Ala-Gly-Pro-Cha-Pro-Phe(Cl)]

Row | EC50, inhibition of forskolin-stimulated cAMP production (CHO-A10 clone 6 cells) [1] | IC50 [2] | IC50 [3] | Binder
19 | 0.15 nM | 0.81 nM |  | [pGlu]RPRLFRRGPMPF [pGlu-Arg-Pro-Arg-Leu-Phe-Arg-Arg-Gly-Pro-Met-Pro-Phe]
20 | 0.52 nM | 1.4 nM |  | XRPRLSHKGPMX (N-terminal pGlu; C-terminal Nal(2); peptide derivative; Xaa on the 1st position means pGlu; Xaa on the 12th position means Nal(2)) [pGlu-Arg-Pro-Arg-Leu-Ser-His-Lys-Gly-Pro-Met-Nal(2)]
21 | 0.59 nM | 0.084 nM | 2.2 nM | RPRLSARGP[Cha]PF [Arg-Pro-Arg-Leu-Ser-Ala-Arg-Gly-Pro-Cha-Pro-Phe]
22 | 1.2 nM | 0.38 nM | 2.3 nM | RPRLFARGP[Cha]PX (not fully specified (residue 12); printed as Arg-Pro-Arg-Leu-Phe-Ala-Arg-Gly-Pro-Cha-Pro-Phe(Cl)) [Arg-Pro-Arg-Leu-Phe-Ala-Arg-Gly-Pro-Cha-Pro-Phe(Cl)]
23 | 0.3 nM | 2.6 nM |  | XRPRLSHFGPMPF (N-terminal pGlu; peptide derivative; Xaa means pGlu) [pGlu-Arg-Pro-Arg-Leu-Ser-His-Phe-Gly-Pro-Met-Pro-Phe]
24 | 0.41 nM | 0.15 nM | 0.41 nM | RPALSHKGP[Cha]PX (not fully specified (residue 12); printed as Arg-Pro-Ala-Leu-Ser-His-Lys-Gly-Pro-Cha-Pro-Phe(Cl)) [Arg-Pro-Ala-Leu-Ser-His-Lys-Gly-Pro-Cha-Pro-Phe(Cl)]
25 | 0.28 nM | 0.027 nM | 2.7 nM | RRQRPRLSHKGP[Nle]PY [Arg-Arg-Gln-Arg-Pro-Arg-Leu-Ser-His-Lys-Gly-Pro-Nle-Pro-Tyr]
26 | 0.22 nM | 0.99 nM |  | XRPRLFHKGPMPF (N-terminal pGlu; peptide derivative; Xaa means pGlu) [pGlu-Arg-Pro-Arg-Leu-Phe-His-Lys-Gly-Pro-Met-Pro-Phe]
27 | 0.49 nM | 0.16 nM |  | RRQRPRLSARG-NMe2 [Arg-Arg-Gln-Arg-Pro-Arg-Leu-Ser-Ala-Arg-Gly-NMe2]
28 | 0.16 nM | 0.59 nM |  | XRPRLSLKGPMPF (N-terminal pGlu; peptide derivative; Xaa means pGlu) [pGlu-Arg-Pro-Arg-Leu-Ser-Leu-Lys-Gly-Pro-Met-Pro-Phe]
29 | 0.46 nM | 0.13 nM | 8 nM | RPRLFHKGP[Cha]PF [Arg-Pro-Arg-Leu-Phe-His-Lys-Gly-Pro-Cha-Pro-Phe]
30 | 1 nM | 0.29 nM | 2.7 nM | RPRLFHKGP[Cha]PX (not fully specified (residue 12); printed as Arg-Pro-Arg-Leu-Phe-His-Lys-Gly-Pro-Cha-Pro-Phe(Cl)) [Arg-Pro-Arg-Leu-Phe-His-Lys-Gly-Pro-Cha-Pro-Phe(Cl)]
31 | 0.53 nM | 0.33 nM | 0.47 nM | RRQRPRLSHKGP[Cha]PX (not fully specified (residue 15); printed as Arg-Arg-Gln-Arg-Pro-Arg-Leu-Ser-His-Lys-Gly-Pro-Cha-Pro-Phe(Cl)) [Arg-Arg-Gln-Arg-Pro-Arg-Leu-Ser-His-Lys-Gly-Pro-Cha-Pro-Phe(Cl)]
32 | 0.16 nM | 3.6 nM |  | XRPRLSHLGPMPF (N-terminal pGlu; peptide derivative; Xaa means pGlu) [pGlu-Arg-Pro-Arg-Leu-Ser-His-Leu-Gly-Pro-Met-Pro-Phe]
33 | 0.081 nM | 0.23 nM |  | XRPRLSRKGPMPF (N-terminal pGlu; peptide derivative; Xaa means pGlu) [pGlu-Arg-Pro-Arg-Leu-Ser-Arg-Lys-Gly-Pro-Met-Pro-Phe]
34 | 0.1 nM | 0.35 nM |  | RPRLSHKGPMPX (C-terminal Nal(2); peptide derivative; Xaa means Nal(2)) [Arg-Pro-Arg-Leu-Ser-His-Lys-Gly-Pro-Met-Pro-Nal(2)]
35 | 0.65 nM | 0.1 nM | 1 nM | RPRLSARGP[Cha]X (not fully specified (residue 11); printed as Arg-Pro-Arg-Leu-Ser-Ala-Arg-Gly-Pro-Cha-Phe(Cl)) [Arg-Pro-Arg-Leu-Ser-Ala-Arg-Gly-Pro-Cha-Phe(Cl)]
36 | 0.22 nM | 0.51 nM |  | RPRLSHKGPMX (C-terminal Cha; peptide derivative; Xaa means Cha) [Arg-Pro-Arg-Leu-Ser-His-Lys-Gly-Pro-Met-Cha]
